Consider three molecules from patent publication US20240150474A1 (Regeneron, published 2024).

Assay [1] deals with T1, full length human ACVR1 (amino acids 1-509, R206H, of accession #Q04771) on HEK293/BRE-luc/hACVR1-R206H-clone … (human, UniProt Q04771 21-509).
T1 construct: Expressed as amino acids 1-509; also called HEK293/hACVR1-R206H
T1 sequence: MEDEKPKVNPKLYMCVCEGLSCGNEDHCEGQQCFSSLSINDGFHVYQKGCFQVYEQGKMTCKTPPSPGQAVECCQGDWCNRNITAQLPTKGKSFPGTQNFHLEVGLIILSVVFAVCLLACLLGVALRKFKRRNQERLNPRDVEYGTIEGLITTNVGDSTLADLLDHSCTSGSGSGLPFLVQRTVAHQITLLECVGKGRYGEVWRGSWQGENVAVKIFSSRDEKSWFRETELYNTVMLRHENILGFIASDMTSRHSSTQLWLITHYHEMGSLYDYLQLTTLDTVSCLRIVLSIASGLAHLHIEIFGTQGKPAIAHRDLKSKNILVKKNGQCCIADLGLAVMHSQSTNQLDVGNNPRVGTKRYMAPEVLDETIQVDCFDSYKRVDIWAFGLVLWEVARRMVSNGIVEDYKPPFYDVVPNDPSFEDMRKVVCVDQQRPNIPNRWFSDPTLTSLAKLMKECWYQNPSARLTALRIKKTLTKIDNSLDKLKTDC
As to the kind of experiment: flow cytometry, 70 nM antibody on HEK293/hACVR1-R206H cells, 4C. Here is the method: To assess binding of the anti-ACVR1 antibodies of the invention to ACVR1 receptors expressed on the cell surface, 70 nM of the antibodies were incubated with 5×10⁵ cells/well at 4° C. for 30 minutes in PBS (without calcium and magnesium) containing 2% FBS (flow buffer). […] Cells were fixed using BD CytoFix™ (Becton Dickinson, # 554655) and analyzed on IQue® Flow Cytometer (Intellicyt®). Unstained and secondary antibody alone controls were also tested on cells. The results were analyzed using ForeCyt® (IntelliCyt®) software to determine the geometric means of fluorescence for viable cells and the binding ratio was calculated by normalizing the geometric mean value of the test condition by the geometric mean value of the corresponding unstained cells.
(In flow cytometry, cells or beads pass a laser one at a time.)

A further assay addresses T2, dimeric human ACVRL1 (human, UniProt P37023 22-118, limits assumed).
T2 construct: Construct and dimerising part not described; also called Human Receptor ACVRL1
The experiment in a line: SPR Biacore T200, mAb captured by anti-human Fab, dimeric receptor injected, 25C. The procedure: (§1) ACVR1 mAbs were tested for cross-reactivity to a panel of bone morphogenic protein type 1 receptors including human and mouse ACVR1, BMPR1A, and BMPR1B, as well as ACVRL1 on a Biacore T200 as follows. In order to measure the specificity of ACVR1 mAbs, ACVR1 mAbs were captured with anti-human Fab immobilized on a CM5 chip. 100 nM or 10 nM of dimeric human or mouse ACVR1, ACVRL1, BMPR1A or BMPR1B were injected at 30 μL/min for 2 min (duplicate injections) and the experiment was performed at 25° C. Binding of different receptors to the captured mAb was determined using Scrubber 2.0c software.
For orientation: In SPR one partner is held on a chip, and binding of the other changes the refractive index at the surface.

Another assay deals with T3, dimeric human BMPR1A (human, UniProt P36894 24-152, limits assumed).
T3 construct: Construct and dimerising part not described; also called Human Receptor BMPR1A
T3 sequence (P36894 24-152 limits assumed): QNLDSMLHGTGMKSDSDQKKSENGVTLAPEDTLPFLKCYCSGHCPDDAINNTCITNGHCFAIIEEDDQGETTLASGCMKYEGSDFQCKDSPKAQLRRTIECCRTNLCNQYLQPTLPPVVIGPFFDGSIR
The description is as above. The procedure: as §1

The next assay concerns the target T4, dimeric human BMPR1B (human, UniProt O00238 14-126, limits assumed).
T4 construct: Construct and dimerising part not described; also called Human Receptor BMPR1B
T4 sequence (looked up): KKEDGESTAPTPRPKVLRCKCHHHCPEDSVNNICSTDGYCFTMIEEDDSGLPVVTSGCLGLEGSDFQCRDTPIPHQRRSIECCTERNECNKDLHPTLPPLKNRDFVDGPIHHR
Described as above. Here is the method: as §1

The next assay deals with T5, dimeric mouse ACVRL1 (mouse, UniProt Q61288 23-119, limits assumed).
T5 construct: Construct and dimerising part not described; also called Mouse Receptor ACVRL1
T5 sequence (looked up): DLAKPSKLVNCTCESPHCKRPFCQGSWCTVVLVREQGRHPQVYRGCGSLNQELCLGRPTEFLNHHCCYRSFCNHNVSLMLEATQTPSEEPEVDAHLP
Described as above. The procedure:
as §1

A further assay has as its target T6, dimeric mouse BMPR1A (mouse, UniProt P36895 24-152, limits assumed).
T6 construct: Construct and dimerising part not described; also called Mouse Receptor BMPR1A
The assay is described as above. The procedure:
as §1

A further assay has as its target T7, dimeric mouse BMPR1B (mouse, UniProt P36898 14-126, limits assumed).
T7 construct: Construct and dimerising part not described; also called Mouse Receptor BMPR1B
T7 sequence (looked up): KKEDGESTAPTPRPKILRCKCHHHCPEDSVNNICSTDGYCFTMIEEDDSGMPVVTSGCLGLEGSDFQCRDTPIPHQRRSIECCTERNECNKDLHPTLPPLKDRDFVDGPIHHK
The description is as above. The procedure:
as §1

T6 sequence (P36895 24-152 limits assumed): as the sequence (P36894 24-152 limits assumed) above, with S16L, S21P, A74T counted along it
T2 sequence (P37023 22-118 limits assumed): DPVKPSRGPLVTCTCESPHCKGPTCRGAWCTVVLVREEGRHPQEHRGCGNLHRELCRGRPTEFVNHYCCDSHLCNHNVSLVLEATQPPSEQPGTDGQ

B1: REGN 5168 (antibody, human IgG4 S228P, kappa, V domains shown)
VH: QVQLVQSGAEVKEPGASVKVSCKASGYTFAEYYMHWVRQAPGQGLEWMGAINPSGSHTSYAQKFQGRVTMTRDTSTSTVYMELSSLRSEDTAVYYCARSISGKRGGDYYGMDVWGQGTTVTVSS
VL: DIQMTQSPSTLSASVGDRVTITCRASQSISSWLAWYQQKPGKAPKLLIYKASSLESGVPSRFSGSGSGTEFTLTISSLQPDDFATYYCQQYSIFPFTFGGGTKVEIKR
notes: also called REGN 5168-L1
As for B1, the “MFI-Normalized to Unstained Control” value in assay [1] is 2250 fold. Also, the binding result with dimeric human ACVRL1, in the assay with dimeric human BMPR1A, with dimeric human BMPR1B, with dimeric mouse ACVRL1, with dimeric mouse BMPR1A and in the assay with dimeric mouse BMPR1B was “no binding (tested: 100 nM)” each time.

B2: REGN 5166 (antibody, human IgG4 S228P, kappa, V domains shown)
VH: QVQLVESGGGVVQPGRSLRLSCAASGFTFSAYWMHWVRQAPGKGLEWVAVISYDGSNKYYADSVKGRFTISRDHSKNTLYLQMNSLRAEDTAVYYCAKGDAYDSWRILLGGDYYGMDVWGQGTTVTVSS
VL: EIVLTQSPGTLSLSPGERATLSCRASQSVSSSYLAWYQQKPGQAPRPLIYGASSRATGIPDRFSGSGSGTDFTLTISRLEPEDFAVYYCQQGGDAPPYTFGGGTKVEIKR
notes: also called REGN 5166-L1
On to B2, for which, in assay [1], the “MFI-Normalized to Unstained Control” value was found to be 2000 fold. Moreover, the binding result in the assay with dimeric human ACVRL1, with dimeric human BMPR1A, with dimeric human BMPR1B, with dimeric mouse ACVRL1, with dimeric mouse BMPR1A and with dimeric mouse BMPR1B was “no binding (tested: 100 nM)” throughout.

B3: REGN 5167 (antibody, human IgG4 S228P, kappa, V domains shown)
VH: QLQLQESGPGLVKPSETLSLTCTVSGGSITSSSYYWAWIRQPPGKGLEWIGKIYYSGSTHYNPSLKSRVTISVDTSKNQFSLKLSSVTAADTAVYYCARVGGHGYGDSAGLAFDIWGQGTMVTVSS
VL: EIVLTQSPGTLSLSPGERATLSCRASQSVSSAFLAWYQQKPGQAPRLLIYGASYRHTGIPDRFSGSGSGTDFTLTISRLEPEDFAVYYCQHYGVGPRTFGGGTKVEIKR
notes: also called REGN 5167-L1
In the case of B3, in assay [1], the “MFI-Normalized to Unstained Control” value worked out at 1870 fold. Moreover, the binding result with dimeric human ACVRL1, with dimeric human BMPR1A, in the assay with dimeric human BMPR1B, in the assay with dimeric mouse ACVRL1, with dimeric mouse BMPR1A and with dimeric mouse BMPR1B was “no binding (tested: 100 nM)” each time.
